Reference: publication PMC4005659, “TcaR–ssDNA complex crystal structure reveals new DNA binding mechanism of the MarR family proteins”

Molecular target: TcaR (Staphylococcus epidermidis RP62A (ATCC …, UniProt A0A0H2VJZ8 1-151))
Assay: X-ray crystallography; 1:1 TcaR dimer:ssDNA; 40% ethylene glycol, 0.1 M Tris pH 7.0; 3.6 A; EMSA: 20 mM Tris-HCl pH 8.0, 150 mM KCl, 0.1 mM MgCl2, 0.05 mM EDTA, 12.5% glycerol, 0.1 mM DTT, 1 mg/ml BSA, 15 min, room temperature; ssDNA 12 uM, TcaR 2-24 uM
Conditions: protein: recombinant; tags: N-terminal His6; chain copies: 2; single strand

## CGCAGCGCGCAGCCCTA (ssDNA) [17-mer GC-rich ssDNA]
  binding result: binds
